Test results taken from patent EP3020822A1 (Janssen Biotech, Inc., dated 2016).

What was measured:
[1] = target: T1, human TLR3 extracellular domain (ECD) (human, UniProt O15455 24-703); test: ELISA, huTLR3 ECD coated, mAb titrated, anti-human IgG-peroxidase
T1 construct: amino acids 1-703 of human TLR3; the structural model covers residues 30-687; also called huTLR3 ECD; TLR3 ECD

[2] = target: T1, human TLR3 extracellular domain (ECD); test: Biacore (data not shown)
[3] = target: T1, human TLR3 extracellular domain (ECD); test: ELISA, human TLR3 ECD coated, goat anti-human Fc:HRP, luminescence

| EC50 [1] [µg/mL] | Kd [2] [nM] | binding result [3] | Binder |
| --- | --- | --- | --- |
| 0.0437 | < 10 | – | mAb 16 (antibody, human IgG4 S228P, V domains shown, human IgG4 with S229P; also called candidate 16; Fab 16) VH: QVELVQSGAEVKKPGESLKISCKGSGYSFNNYWIGWVRQMPGKGLEWMGIIDPGDSYTNYAPSFQGQVTISADKSISTAYLQWSSLKASDTAMYYCARNIYEFDYWGQGTLVTVSS VL: DIQMTQSPSSLSASVGDRVTITCRASQGISSWLNWYQQKPGKAPKLLIYGASNLQSGVPSRFSGSGSGTDFTLTISSLQPEDFAVYYCQQYDDFSITFGQGTKVEIK |
| 0.0263 | < 10 | – | mAb 11 (antibody, human IgG4 S228P, V domains shown, human IgG4 with S229P; also called candidate 11; Fab 11) VH: QVELQQSGPGLVKPSQTLSLTCAISGDSVSSNSAAWGWIRQSPGRGLEWLGIIQKRSKWYNNYAVSVKSRITINPDTSKNQFSLQLNSVTPEDTAVYYCARYSYPFYSIDYWGQGTLVTVSS VL: DIELTQPPSVSVAPGQTARISCSGDNIGSYYVHWYQQKPGQAPVLVIYEDSERPSGIPERFSGSNSGNTATLTISGTQAEDEADYYCSSYDEPNFNVFGGGTKLTVL |
| 0.0226 | < 10 | – | mAb 9 (antibody, human IgG4 S228P, V domains shown, human IgG4 with S229P; also called candidate 9; Fab 9) VH: QVELQQSGPGLVKPSQTLSLTCAISGDSVSSNSAAWGWIRQSPGRGLEWLGIIQIRSKWYNDYALSVKSRITINPDTSKNQFSLQLNSVTPEDTAVYYCARYSYPFYSIDYWGQGTLVTVSS VL: DIELTQPPSVSVAPGQTARISCSGDNIGSYYVHWYQQKPGQAPVLVIYEDSERPSGIPERFSGSNSGNTATLTISGTQAEDEADYYCQSYDSQFSFGVFGGGTKLTVL |
| 0.00968 | < 10 | – | mAb 18 (antibody, human IgG4 S228P, V domains shown, human IgG4 with S229P; also called candidate 18; Fab 18) VH: QVELQQSGPGLVKPSQTLSLTCAISGDSVSSNSAAWGWIRQSPGRGLEWLGIIQKRSKWYNNYAVSVKSRITINPDTSKNQFSLQLNSVTPEDTAVYYCARYSYPFYSIDYWGQGTLVTVSS VL: DIELTQPPSVSVAPGQTARISCSGDNIGSYYVHWYQQKPGQAPVLVIYEDSERPSGIPERFSGSNSGNTATLTISGTQAEDEADYYCQSYDSQFSFGVFGGGTKLTVL |
| 0.0161 | < 10 | – | mAb 7 (antibody, human IgG4 S228P, V domains shown, human IgG4 with S229P; also called candidate 7; Fab 7) VH: QVELQQSGPGLVKPSQTLSLTCAISGDSVSTRSAAWGWIRQSPGRGLEWLGRIYMRSKWYNDYAVSVKSRITINPDTSKNQFSLQLNSVTPEDTAVYYCARHTYPYLSFDVWGQGTLVTVSS VL: DIELTQPPSVSVAPGQTARISCSGDALGGYFVSWYQQKPGQAPVLVIYDDDNRPSGIPERFSGSNSGNTATLTISGTQAEDEADYYCSSYDSDSLTVFGGGTKLTVL |
| 0.0336 | < 10 | – | mAb 14 (antibody, human IgG4 S228P, kappa, V domains shown, human IgG4 with S229P; also called candidate 14; Fab 14) VH: QVELVQSGAEVKKPGESLKISCKGSGYSFTNYWVGWVRQMPGKGLEWMGFIDPSDSYTNYAPSFQGQVTISADKSISTAYLQWSSLKASDTAMYYCARELYQGYMDTFDSWGQGTLVTVSS VL: DIQMTQSPSSLSASVGDRVTITCRASQSIGLYLAWYQQKPGKAPKLLIYAASSLQSGVPSRFSGSGSGTDFTLTISSLQPEDFATYYCQQAETVSPTFGQGTKVEIKR |
| 0.0665 | < 10 | – | mAb 19 (antibody, human IgG4 S228P, V domains shown, human IgG4 with S229P; also called candidate 19; Fab 19) VH: QVELVQSGAEVKKPGESLKISCKGSGYSFTNYWVGWVRQMPGKGLEWMGFIDPSDSYTNYAPSFQGQVTISADKSISTAYLQWSSLKASDTAMYYCARELYQGYMDTFDSWGQGTLVTVSS VL: DIQMTQSPSSLSASVGDRVTITCRASQSIGLYLAWYQQKPGKAPKLLIYAASSLQSGVPSRFSGSGSGTDFTLTISSLQPEDFATYYCQQYGSVSITFGQGTKVEIK |

Further lines, the binder ahead of its results:

| Binder | EC50 [1] [µg/mL] | Kd [2] [nM] | binding result [3] |
| --- | --- | --- | --- |
| mAb 1 (antibody, human IgG4 S228P, human IgG4 with S229P; also called candidate 1; Fab 1) heavy: not shown VL: DIVLTQSPATLSLSPGERATLSCRASQYIDISYLAWYQQKPGQAPRLLIYDASSRATGVPARFSGSGSGTDFTLTISSLEPEDFAVYYCQQYYSLSITFGQGTKVEIK | 0.0172 | < 10 | – |
| mAb 2 (antibody, human IgG4 S228P, V domains shown, human IgG4 with S229P; also called candidate 2; Fab 2) VH: QVELVQSGAEVKKPGESLKISCKGSGYSFNNYWIGWVRQMPGKGLEWMGIIDPQDSWTNYAPSFQGQVTISADKSISTAYLQWSSLKASDTAMYYCARNIYEFDYWGQGTLVTVSS VL: DIQMTQSPSSLSASVGDRVTITCRASQGISSWLNWYQQKPGKAPKLLIYGASNLQSGVPSRFSGSGSGTDFTLTISSLQPEDFAVYYCQQYDDFSITFGQGTKVEIK | 0.0531 | < 10 | – |
| mAb 8 (antibody, human IgG4 S228P, V domains shown, human IgG4 with S229P; also called candidate 8; Fab 8) VH: QVELQQSGPGLVKPSQTLSLTCAISGDSVSSNSAAWGWIRQSPGRGLEWLGIIQTRSKWYNDYAVSVKSRITINPDTSKNQFSLQLNSVTPEDTAVYYCARYSYPFYSIDYWGQGTLVTVSS VL: DIELTQPPSVSVAPGQTARISCSGDNIGSYYVHWYQQKPGQAPVLVIYEDSERPSGIPERFSGSNSGNTATLTISGTQAEDEADYYCQSYDSQFSFGVFGGGTKLTVL | 0.0186 | < 10 | – |
| mAb 10 (antibody, human IgG4 S228P, V domains shown, human IgG4 with S229P; also called candidate 10; Fab 10) VH: QVELQQSGPGLVKPSQTLSLTCAISGDSVSSNSAAWGWIRQSPGRGLEWLGIIQKRSKWYNNYAVSVKSRITINPDTSKNQFSLQLNSVTPEDTAVYYCARYSYPFYSIDYWGQGTLVTVSS VL: DIELTQPPSVSVAPGQTARISCSGDNIGSYYVHWYQQKPGQAPVLVIYEDSERPSGIPERFSGSNSGNTATLTISGTQAEDEADYYCQSYDTPVYSVFGGGTKLTVL | 0.0158 | < 10 | – |
| mAb 17 (antibody, human IgG4 S228P, V domains shown, human IgG4 with S229P; also called candidate 17; Fab 17) VH: QVELQQSGPGLVKPSQTLSLTCAISGDSVSTRSAAWGWIRQSPGRGLEWLGRIYMRSKWYNDYAVSVKSRITINPDTSKNQFSLQLNSVTPEDTAVYYCARHTYPYLSFDVWGQGTLVTVSS VL: DIELTQPPSVSVAPGQTARISCSGDALGGYFVSWYQQKPGQAPVLVIYDDDNRPSGIPERFSGSNSGNTATLTISGTQAEDEADYYCASYDGDEFTVFGGGTKLTVL | 0.0138 | < 10 | – |
| mAb 4 (antibody, human IgG4 S228P, V domains shown, human IgG4 with S229P; also called candidate 4; Fab 4) VH: QVELQQSGPGLVKPSQTLSLTCAISGDSVSTRSAAWGWIRQSPGRGLEWLGKISYRSRWYNDYAVSVKSRITINPDTSKNQFSLQLNSVTPEDTAVYYCARHTYPYLSFDVWGQGTLVTVSS VL: DIELTQPPSVSVAPGQTARISCSGDALGGYFVSWYQQKPGQAPVLVIYDDDNRPSGIPERFSGSNSGNTATLTISGTQAEDEADYYCASYDGDEFTVFGGGTKLTVL | 0.0128 | < 10 | – |
| mAb 6 (antibody, human IgG4 S228P, V domains shown, human IgG4 with S229P; also called candidate 6; Fab 6) VH: QVELQQSGPGLVKPSQTLSLTCAISGDSVSTRSAAWGWIRQSPGRGLEWLGRIYMRSKWYNDYAVSVKSRITINPDTSKNQFSLQLNSVTPEDTAVYYCARHTYPYLSFDVWGQGTLVTVSS VL: DIELTQPPSVSVAPGQTARISCSGDALGGYFVSWYQQKPGQAPVLVIYDDDNRPSGIPERFSGSNSGNTATLTISGTQAEDEADYYCGSYDSNSLTVFGGGTKLTVL | 0.019 | < 10 | – |
| mAb 5 (antibody, human IgG4 S228P, V domains shown, human IgG4 with S229P; also called candidate 5; Fab 5) VH: QVELQQSGPGLVKPSQTLSLTCAISGDSVSTRSAAWGWIRQSPGRGLEWLGRIYMRSKWYNDYAVSVKSRITINPDTSKNQFSLQLNSVTPEDTAVYYCARHTYPYLSFDVWGQGTLVTVSS VL: DIELTQPPSVSVAPGQTARISCSGDALGGYFVSWYQQKPGQAPVLVIYDDDNRPSGIPERFSGSNSGNTATLTISGTQAEDEADYYCQSYDEDSATVFGGGTKLTVL | 0.0199 | < 10 | – |
| mAb 3 (antibody, human IgG4 S228P, V domains shown, human IgG4 with S229P; also called candidate 3; Fab 3) VH: QVELQQSGPGLVKPSQTLSLTCAISGDSVSTRSAAWGWIRQSPGRGLEWLGRIHRRSKWYNDYAVSVKSRITINPDTSKNQFSLQLNSVTPEDTAVYYCARHTYPYLSFDVWGQGTLVTVSS VL: DIELTQPPSVSVAPGQTARISCSGDALGGYFVSWYQQKPGQAPVLVIYDDDNRPSGIPERFSGSNSGNTATLTISGTQAEDEADYYCASYDGDEFTVFGGGTKLTVL | 0.0234 | < 10 | – |
| mAb 13 (antibody, human IgG4 S228P, V domains shown, human IgG4 with S229P; also called candidate 13; Fab 13) VH: QVELVQSGAEVKKPGESLKISCKGSGYSFTNYWVGWVRQMPGKGLEWMGFIDPSDSYTNYAPSFQGQVTISADKSISTAYLQWSSLKASDTAMYYCARELYQGYMDTFDSWGQGTLVTVSS VL: DIQMTQSPSSLSASVGDRVTITCRASQSIGLYLAWYQQKPGKAPKLLIYAASSLQSGVPSRFSGSGSGTDFTLTISSLQPEDFATYYCQQGESILSTFGQGTKVEIK | 0.0235 | < 10 | – |
| mAb 15-4 (antibody, human IgG4 S228P, kappa, F234A L235A, V domains shown, also called HC: A61S/Q67H) VH: EVQLVQSGAEVKKPGESLKISCKGSGYSFTNYWVGWVRQMPGKGLEWMGFIDPSDSYTNYSPSFQGHVTISADKSISTAYLQWSSLKASDTAMYYCARELYQGYMDTFDSWGQGTLVTVSS VL: DIQMTQSPSSLSASVGDRVTITCRASQSIGLYLAWYQQKPGKAPKLLIYAASSLQSGVPSRFSGSGSGTDFTLTISSLQPEDFATYYCQQGNTLSYTFGQGTKVEIKR | – | – | binds |
| mAb 15-1 (antibody, human IgG4 S228P, kappa, F234A L235A, V domains shown, also called HC: F50R) VH: EVQLVQSGAEVKKPGESLKISCKGSGYSFTNYWVGWVRQMPGKGLEWMGRIDPSDSYTNYAPSFQGQVTISADKSISTAYLQWSSLKASDTAMYYCARELYQGYMDTFDSWGQGTLVTVSS VL: DIQMTQSPSSLSASVGDRVTITCRASQSIGLYLAWYQQKPGKAPKLLIYAASSLQSGVPSRFSGSGSGTDFTLTISSLQPEDFATYYCQQGNTLSYTFGQGTKVEIKR | – | – | binds |
| mAb 15-2 (antibody, human IgG4 S228P, kappa, F234A L235A, V domains shown, also called HC: V34I) VH: EVQLVQSGAEVKKPGESLKISCKGSGYSFTNYWIGWVRQMPGKGLEWMGFIDPSDSYTNYAPSFQGQVTISADKSISTAYLQWSSLKASDTAMYYCARELYQGYMDTFDSWGQGTLVTVSS VL: DIQMTQSPSSLSASVGDRVTITCRASQSIGLYLAWYQQKPGKAPKLLIYAASSLQSGVPSRFSGSGSGTDFTLTISSLQPEDFATYYCQQGNTLSYTFGQGTKVEIKR | – | – | binds |
| mAb 15-3 (antibody, human IgG4 S228P, kappa, F234A L235A, V domains shown, also called HC: V34I/G35S) VH: EVQLVQSGAEVKKPGESLKISCKGSGYSFTNYWISWVRQMPGKGLEWMGFIDPSDSYTNYAPSFQGQVTISADKSISTAYLQWSSLKASDTAMYYCARELYQGYMDTFDSWGQGTLVTVSS VL: DIQMTQSPSSLSASVGDRVTITCRASQSIGLYLAWYQQKPGKAPKLLIYAASSLQSGVPSRFSGSGSGTDFTLTISSLQPEDFATYYCQQGNTLSYTFGQGTKVEIKR | – | – | binds |
